Here are results for two molecules from publication PMC12494784 (Nature Communications, 2025).

The data set “cryo-EM structure” deals with the molecule itself. Kind of data set: cryo-EM structure.
The next data set has as its target calmodulin (UniProt P0DP23). The experiment in a line: cryo-EM structure.

B1: truncated Xenopus laevis KCNQ1 (residues 67-610), wild type (domain or fragment)
chain: ATDPPRPTINLDPRVSIYSGRRPLLSRTNIQGRVYNFLERPTGWKCFVYHFTVFLIVLICLIFSVLSTIQQYNNLATETLFWMEIVLVVFFGAEYVVRLWSAGCRSKYVGVWGRLRFARKPISVIDLIVVVASVIVLCVGSNGQVFATSAIRGIRFLQILRMLHVDRQGGTWRLLGSVVFIHRQELITTLYIGFLGLIFSSYFVYLAEKDAIDSSGEYQFGSYADALWWGVVTVTTIGYGDKVPQTWIGKTIASCFSVFAISFFALPAGILGSGFALKVQQKQRQKHFNRQIPAAASLIQTAWRCYAAENPDSATWKIYIRKQSRNHHLMSPSPKPKKSAMVKKKKIRTERDEGSTDKMLNIPHITYDHVADDRKNDGYSVESYENTVRKPFGFLDPSTGPFIRTSSFTDDLDMEGDTLLTPITHISELKEHHRAAIKVIRRMQYFVAKKKFQQARKPYDVRDVIEQYSQGHLNLMVRIKELQRRLDQSLGKPSLFLSVSDKVKDKGINTIGSRLNRVEDKVTQMDHKLNLITDMLHHLLTNQQ
Regarding B1, the stoichiometry N (usually the number of molecules, sites or subunits per partner or assembly) in “cryo-EM structure” stood at 4. In addition, the binding result with calmodulin was “binds”.

B2: Xenopus KCNQ1 E150R/R221E (residues 67-610) (domain or fragment)
chain: ATDPPRPTINLDPRVSIYSGRRPLLSRTNIQGRVYNFLERPTGWKCFVYHFTVFLIVLICLIFSVLSTIQQYNNLATETLFWMRIVLVVFFGAEYVVRLWSAGCRSKYVGVWGRLRFARKPISVIDLIVVVASVIVLCVGSNGQVFATSAIRGIEFLQILRMLHVDRQGGTWRLLGSVVFIHRQELITTLYIGFLGLIFSSYFVYLAEKDAIDSSGEYQFGSYADALWWGVVTVTTIGYGDKVPQTWIGKTIASCFSVFAISFFALPAGILGSGFALKVQQKQRQKHFNRQIPAAASLIQTAWRCYAAENPDSATWKIYIRKQSRNHHLMSPSPKPKKSAMVKKKKIRTERDEGSTDKMLNIPHITYDHVADDRKNDGYSVESYENTVRKPFGFLDPSTGPFIRTSSFTDDLDMEGDTLLTPITHISELKEHHRAAIKVIRRMQYFVAKKKFQQARKPYDVRDVIEQYSQGHLNLMVRIKELQRRLDQSLGKPSLFLSVSDKVKDKGINTIGSRLNRVEDKVTQMDHKLNLITDMLHHLLTNQQ
As to B2, in the data set with calmodulin, the binding result is reported as “binds”.
